Results published in patent US20250276077A1 (IMMUNOME, published 2025).

molecular target: Human EphA2 (ephrin receptor A2) on cells (human, UniProt P29317 25-976); experiment: cell-based or functional assay
Sequence (P29317 25-976): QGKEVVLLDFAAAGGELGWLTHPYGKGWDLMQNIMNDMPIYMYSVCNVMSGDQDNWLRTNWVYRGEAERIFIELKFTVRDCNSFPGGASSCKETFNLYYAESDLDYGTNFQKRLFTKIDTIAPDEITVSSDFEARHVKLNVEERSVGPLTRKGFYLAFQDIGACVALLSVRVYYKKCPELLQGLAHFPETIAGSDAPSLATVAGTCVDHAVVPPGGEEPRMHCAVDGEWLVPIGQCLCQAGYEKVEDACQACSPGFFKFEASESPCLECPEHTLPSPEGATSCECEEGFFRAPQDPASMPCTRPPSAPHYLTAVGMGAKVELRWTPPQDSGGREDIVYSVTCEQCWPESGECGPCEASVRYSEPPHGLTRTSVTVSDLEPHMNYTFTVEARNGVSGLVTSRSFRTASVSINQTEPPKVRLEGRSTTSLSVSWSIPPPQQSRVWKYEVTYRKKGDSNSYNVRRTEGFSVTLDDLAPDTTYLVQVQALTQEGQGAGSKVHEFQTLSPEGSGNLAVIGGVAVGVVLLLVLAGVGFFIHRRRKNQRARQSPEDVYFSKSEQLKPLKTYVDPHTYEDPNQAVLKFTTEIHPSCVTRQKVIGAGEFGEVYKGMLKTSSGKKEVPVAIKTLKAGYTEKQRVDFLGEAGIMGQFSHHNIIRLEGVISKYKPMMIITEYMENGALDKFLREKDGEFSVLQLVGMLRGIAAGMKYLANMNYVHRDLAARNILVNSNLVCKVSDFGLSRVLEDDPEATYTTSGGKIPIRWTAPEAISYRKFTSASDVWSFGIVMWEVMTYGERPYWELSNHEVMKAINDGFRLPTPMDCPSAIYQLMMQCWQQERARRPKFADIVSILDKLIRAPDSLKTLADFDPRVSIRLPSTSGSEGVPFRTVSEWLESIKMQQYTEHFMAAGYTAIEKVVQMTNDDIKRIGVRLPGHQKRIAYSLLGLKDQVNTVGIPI

Row | Binder | ADCC - EC50 (nM), Trial 1, A549 | ADCC - EC50 (nM), Trial 2, A549
1 | AB-010693 (antibody, V domains shown) VH: QVQLQQWGAGLLKPSETLSLTCAVYGGSFSGYYWSWIRQPPGKGLEWIGEINHRGSINYNNYNPSLKSRVTISVDTSKNQFSLKLSSVTAADTAVYYCAKPLRPHCINGVCYSGDAFDIWGQGTMVTVAS VL: SYVLTQPPSVSVAPGQTARITCGGNNIGYKNVHWYQQKPGQAPVLVVYDDSDRPSGIPERFSGSNSGNTATLTISRVEAGDEADYYCQVWDSSSDHVVFGGGTKLTVL | 0.15 nM | 
2 | AB-010696 (antibody, V domains shown) VH: QVQLQQWGAGLLKPSETLSLTCAVYGGSFSGYYWSWIRQPPGKGLEWIGEINHRGSINYNNYNPSLKSRVTISVDTSKNQFSLKLSSVTAADTAVYYCAKPLRPHCINGVCYSGDAFDIWGQGTMVTVAS VL: SYVLTQPPSVSVAPGQTARITCGGNNIGSMNVHWYQQKPGQAPVLVVYDDSDRPSGIPERFSGSNSGNTATLTISRVEAGDEADYYCQVWDSSSDHVVFGGGTKLTVL | 1.9 nM | 
3 | AB-010700 (antibody, V domains shown) VH: QVQLQQWGAGLLKPSETLSLTCAVYGGSFSGYYWSWIRQPPGKGLEWIGEINHRGSINYNNYNPSLKSRVTISVDTSKNQFSLKLSSVTAADTAVYYCAKPLRPHCTNGVCYSGDAFDIWGQGTMVTVAS VL: SYVLTQPPSVSVAPGQTARITCGGNNIGSKNVHWYQQKPGQAPVLVVYDDSDRPSGIPERFSGSNSGNTATLTISRVEAGDEADYYCQVWDSRSDHVVFGGGTKLTVL | 9.5 nM | 
4 | AB-010661 (antibody, V domains shown) VH: QVQLQQWGAGLLKPSETLSLTCAVYGGSFSDYYWSWIRQPPGKGLEWIGEINHRGSINYNNYNPSLKSRVTISVDTSKNQFSLKLSSVTAADTAVYYCAKPLRPHCINGVCYSGDAFDIWGQGTMVTVAS VL: SYVLTQPPSVSVAPGQTARITCRGNNIGSKNVHWYQQKPGQAPVLVVYDDSDRPSGIPEQFSGSNSGNTATLTISRVEAGDEADYYCQVWDSSSDHVVFGGGTKLTVL | 5.7 nM | 
5 | AB-010695 (antibody, V domains shown) VH: QVQLQQWGAGLLKPSETLSLTCAVYGGSFSGYYWSWIRQPPGKGLEWIGEINHRGSINYNNYNPSLKSRVTISVDTSKNQFSLKLSSVTAADTAVYYCAKPLRPHCTNGVCYSGDAFDIWGQGTMVTVAS VL: SYVLTQPPSVSVAPGQTARITCGGNNIGYKNVHWYQQKPGQAPVLVVYDDSDRPSGIPERFSGSNSGNTATLTISRVEAGDEADYYCQVWDHSSDHVVFGGGTKLTVL | ~0.021 nM | 0.0096 nM
6 | AB-010669 (antibody, V domains shown) VH: QVQLQQWGAGLLKPSETLSLTCAVYGGSFSDYYWSWIRQPPGKGLEWIGEINHRGSINYNNYNPSLKSRVTISVDTSKNQFSLKLSSVTAADTAVYYCAKPLRPHCTNGVCYSGDAFDIWGQGTMVTVAS VL: SYVLTQPPSVSVAPGQTARITCGGNNIGSMNVHWYQQKPGQAPVLVVYDDSDRPSGIPEQFSGSNSGNTATLTISRVEAGDEADYYCQVWDHSSDHVVFGGGTKLTVL | 0.44 nM | 
7 | AB-010663 (antibody, V domains shown) VH: QVQLQQWGAGLLKPSETLSLTCAVYGGSFSDYYWSWIRQPPGKGLEWIGEINHRGSINYNNYNPSLKSRVTISVDTSKNQFSLKLSSVTAADTAVYYCAKPLRPHCTNGVCYSGDAFDIWGQGTMVTVAS VL: SYVLTQPPSVSVAPGQTARITCRGNNIGSMNVHWYQQKPGQAPVLVVYDDSDRPSGIPEQFSGSNSGNTATLTISRVEAGDEADYYCQVWDSSSDHVVFGGGTKLTVL | 4.7 nM | 
8 | AB-010668 (antibody, V domains shown) VH: QVQLQQWGAGLLKPSETLSLTCAVYGGSFSDYYWSWIRQPPGKGLEWIGEINHRGSINYNNYNPSLKSRVTISVDTSKNQFSLKLSSVTAADTAVYYCAKPLRPHCINGVCYSGDAFDIWGQGTMVTVAS VL: SYVLTQPPSVSVAPGQTARITCGGNNIGSMNVHWYQQKPGQAPVLVVYDDSDRPSGIPEQFSGSNSGNTATLTISRVEAGDEADYYCQVWDSSSDHVVFGGGTKLTVL | 3.7 nM | 
9 | AB-010667 (antibody, V domains shown) VH: QVQLQQWGAGLLKPSETLSLTCAVYGGSFSDYYWSWIRQPPGKGLEWIGEINHRGSINYNNYNPSLKSRVTISVDTSKNQFSLKLSSVTAADTAVYYCAKPLRPHCTNGVCYSGDAFDIWGQGTMVTVAS VL: SYVLTQPPSVSVAPGQTARITCGGNNIGYKNVHWYQQKPGQAPVLVVYDDSDRPSGIPEQFSGSNSGNTATLTISRVEAGDEADYYCQVWDHSSDHVVFGGGTKLTVL | < 0.03 nM | 0.012 nM
10 | AB-010670 (antibody, V domains shown) VH: QVQLQQWGAGLLKPSETLSLTCAVYGGSFSDYYWSWIRQPPGKGLEWIGEINHRGSINYNNYNPSLKSRVTISVDTSKNQFSLKLSSVTAADTAVYYCAKPLRPHCINGVCYSGDAFDIWGQGTMVTVAS VL: SYVLTQPPSVSVAPGQTARITCGGNNIGSKNVHWYQQKPGQAPVLVVYDDSDRPSGIPEQFSGSNSGNTATLTISRVEAGDEADYYCQVWDHSSDHVVFGGGTKLTVL | 0.36 nM | 
11 | AB-010664 (antibody, V domains shown) VH: QVQLQQWGAGLLKPSETLSLTCAVYGGSFSDYYWSWIRQPPGKGLEWIGEINHRGSINYNNYNPSLKSRVTISVDTSKNQFSLKLSSVTAADTAVYYCAKPLRPHCTNGVCYSGDAFDIWGQGTMVTVAS VL: SYVLTQPPSVSVAPGQTARITCRGNNIGSKNVHWYQQKPGQAPVLVVYDDSDRPSGIPEQFSGSNSGNTATLTISRVEAGDEADYYCQVWDHSSDHVVFGGGTKLTVL | 0.54 nM | 
12 | AB-010662 (antibody, V domains shown) VH: QVQLQQWGAGLLKPSETLSLTCAVYGGSFSDYYWSWIRQPPGKGLEWIGEINHRGSINYNNYNPSLKSRVTISVDTSKNQFSLKLSSVTAADTAVYYCAKPLRPHCTNGVCYSGDAFDIWGQGTMVTVAS VL: SYVLTQPPSVSVAPGQTARITCRGNNIGYKNVHWYQQKPGQAPVLVVYDDSDRPSGIPEQFSGSNSGNTATLTISRVEAGDEADYYCQVWDSSSDHVVFGGGTKLTVL | 0.57 nM | 
13 | AB-010701 (antibody, V domains shown) VH: QVQLQQWGAGLLKPSETLSLTCAVYGGSFSGYYWSWIRQPPGKGLEWIGEINHRGSINYNNYNPSLKSRVTISVDTSKNQFSLKLSSVTAADTAVYYCAKPLRPHCTNGVCYSGDAFDIWGQGTMVTVAS VL: SYVLTQPPSVSVAPGQTARITCGGNNIGSKNVHWYQQKPGQAPVLVVYDDSDRPSGIPERFSGSNSGNTATLTISRVEAGDEADYYCQVWDSESDHVVFGGGTKLTVL | 3 nM | 
14 | AB-010671 (antibody, V domains shown) VH: QVQLQQWGAGLLKPSETLSLTCAVYGGSFSDYYWSWIRQPPGKGLEWIGEINHRGSINYNNYNPSLKSRVTISVDTSKNQFSLKLSSVTAADTAVYYCAKPLRPHCINGVCYSGDAFDIWGQGTMVTVAS VL: SYVLTQPPSVSVAPGQTARITCGGNNIGYKNVHWYQQKPGQAPVLVVYDDSDRPSGIPEQFSGSNSGNTATLTISRVEAGDEADYYCQVWDHSSDHVVFGGGTKLTVL | < 0.03 nM | 0.0064 nM
15 | AB-010698 (antibody, V domains shown) VH: QVQLQQWGAGLLKPSETLSLTCAVYGGSFSGYYWSWIRQPPGKGLEWIGEINHRGSINYNNYNPSLKSRVTISVDTSKNQFSLKLSSVTAADTAVYYCAKPLRPHCINGVCYSGDAFDIWGQGTMVTVAS VL: SYVLTQPPSVSVAPGQTARITCGGNNIGSKNVHWYQQKPGQAPVLVVYDDSDRPSGIPERFSGSNSGNTATLTISRVEAGDEADYYCQVWDHSSDHVVFGGGTKLTVL | 0.23 nM | 
16 | AB-010697 (antibody, V domains shown) VH: QVQLQQWGAGLLKPSETLSLTCAVYGGSFSGYYWSWIRQPPGKGLEWIGEINHRGSINYNNYNPSLKSRVTISVDTSKNQFSLKLSSVTAADTAVYYCAKPLRPHCTNGVCYSGDAFDIWGQGTMVTVAS VL: SYVLTQPPSVSVAPGQTARITCGGNNIGSMNVHWYQQKPGQAPVLVVYDDSDRPSGIPERFSGSNSGNTATLTISRVEAGDEADYYCQVWDHSSDHVVFGGGTKLTVL | 0.3 nM | 
17 | AB-010702 (antibody, V domains shown) VH: QVQLQQWGAGLLKPSETLSLTCAVYGGSFSGYYWSWIRQPPGKGLEWIGEINHRGSINYNNYNPSLKSRVTISVDTSKNQFSLKLSSVTAADTAVYYCAKPLRPHCTNGVCYSGDAFDIWGQGTMVTVAS VL: SYVLTQPPSVSVAPGQTARITCGGNNIGYKNVHWYQQKPGQAPVLVVYDDSDRPSGIPERFSGSNSGNTATLTISRVEAGDEADYYCQVWDSESDHVVFGGGTKLTVL | 0.065 nM | 
18 | AB-010665 (antibody, V domains shown) VH: QVQLQQWGAGLLKPSETLSLTCAVYGGSFSDYYWSWIRQPPGKGLEWIGEINHRGSINYNNYNPSLKSRVTISVDTSKNQFSLKLSSVTAADTAVYYCAKPLRPHCINGVCYSGDAFDIWGQGTMVTVAS VL: SYVLTQPPSVSVAPGQTARITCGGNNIGYKNVHWYQQKPGQAPVLVVYDDSDRPSGIPEQFSGSNSGNTATLTISRVEAGDEADYYCQVWDSSSDHVVFGGGTKLTVL | ~0.23 nM | 0.14 nM
19 | AB-010666 (antibody, V domains shown) VH: QVQLQQWGAGLLKPSETLSLTCAVYGGSFSDYYWSWIRQPPGKGLEWIGEINHRGSINYNNYNPSLKSRVTISVDTSKNQFSLKLSSVTAADTAVYYCAKPLRPHCTNGVCYSGDAFDIWGQGTMVTVAS VL: SYVLTQPPSVSVAPGQTARITCGGNNIGYMNVHWYQQKPGQAPVLVVYDDSDRPSGIPEQFSGSNSGNTATLTISRVEAGDEADYYCQVWDSSSDHVVFGGGTKLTVL | ~0.19 nM | 0.16 nM
20 | AB-010694 (antibody, V domains shown) VH: QVQLQQWGAGLLKPSETLSLTCAVYGGSFSGYYWSWIRQPPGKGLEWIGEINHRGSINYNNYNPSLKSRVTISVDTSKNQFSLKLSSVTAADTAVYYCAKPLRPHCTNGVCYSGDAFDIWGQGTMVTVAS VL: SYVLTQPPSVSVAPGQTARITCGGNNIGYMNVHWYQQKPGQAPVLVVYDDSDRPSGIPERFSGSNSGNTATLTISRVEAGDEADYYCQVWDSSSDHVVFGGGTKLTVL | 0.14 nM | 
